Experimental data reported in US20130123349A1.
Read-outs that look alike come from different tables or passages of the source.

How the values were obtained:
[1] = molecular target: T1, […] peptide, GPC-(GPP)5-[…]-(GPP)5-GPC-NH2, cross-linked
[2] = molecular target: T1, […] peptide, …; remark: listed apart in the source
[3] = molecular target: T2, GFOGER peptide, GPC(GPP)5GFOGER(GPP)5GPC, cross-linked; test: SPR, Aegyptin over immobilized cross-linked GFOGER peptide, two-state model
[4] = molecular target: T1, […] peptide, …; test: SPR, Aegyptin over immobilized cross-linked RGQOGVMGFO peptide, two-state model
[5] = molecular target: T2, GFOGER peptide, …; test: SPR, Aegyptin over immobilized cross-linked GFOGER peptide, two-state model; Ka1
[6] = molecular target: T2, GFOGER peptide, …; test: SPR, Aegyptin over immobilized cross-linked GFOGER peptide, two-state model; Kd1

B1: recombinant Aegyptin, O01949 20-273 (protein)
chain: RPMPEDEEPVAEGGDDDASGESEGEEETTDDAGGDGGEEENEGEEHAGDKDAGGEDTGKEENTGHDDAGEEDAGEEDAGEEDAGEEDAGEEDAEKEEGEKEDAGDDAGSDDGEEDSTGGDEGEDNAEDSKGSEKNDPADTYRQVVALLDKDTKVDHIQSEYLRSALNNDLQSEVRVPVVEAIGRIGDYSKIQGCFKSMGKDVKKVISEEEKKFKSCMSKKKSEYQCSEDSFAAAKSKLSPITSKIKSCVSSKGRHHHHHH
- koff [1]: 0.013 s⁻¹
- kon [1]: 61900 M⁻¹ s⁻¹
- IC50 [2]: 300 nM
- Kd [2]: 139 nM
- Kd [3]: 2400 nM
- Kd2 (two-state model) [3]: 0.00261 s⁻¹
- second Ka of the two-state model [3]: 0.000366 M⁻¹ s⁻¹
- Kd [4]: 139 nM
- Kd2 (two-state model) [4]: 0.00194 s⁻¹
- second Ka of the two-state model [4]: 0.000981 M⁻¹ s⁻¹
- kon [5]: 406000 M⁻¹ s⁻¹
- koff [6]: 0.943 s⁻¹
